Marks after values point to notes of the source that are not given here.
How the values were obtained:
[1] = In vivo broiler trial 1, growth performance; parameters: species or system male broiler chickens (ROSS PM3)
[2] = In vivo broiler trial 3, growth performance; parameters: species or system male broiler chickens; Motality: unit not given here
Protocol: The in vivo trial was carried out as described in example 7, except the feed was supplemented with the GH25 lysozyme (SEQ ID NO: 1) at 12.5 or 25 mg per kg feed, the GH24 lysozyme (SEQ ID NO: 4) at 12.5 or 25 mg per kg feed or with Avilamycin at an inclusion level of 10 mg/kg. No additional enzymes (e.g. phytase) were added to the feed. The experimental diets (Starter, Grower and Finisher) were based on soybean meal, wheat and rye (12%) as main ingredients (Table 8). The diets were formulated to contain 225 g crude protein and 12.5 MJ/kg MEN for the starter period, 215 g crude protein and 12.8 MJ/kg MEN for the grower period and 205 g crude protein and 13.0 MJ/kg MEN for the finisher period.

Faecalibacterium = test: Microbiota analysis of broiler trial 4 (16S rRNA), Faecalibacterium; assay type: in vivo, chicken; parameters: key to Observed shift compared to the control group, Significance: Significant change (+++), padj < 0.05; Numerical change (+); conditions: 50 ppm
[3] = Grower (d 22-36), 25 mg/kg feed
[4] = Grower (d 22-36), 50 mg/kg feed
[5] = Grower (d 22-36), 100 mg/kg feed
[6] = Grower (d 22-36), 200 mg/kg feed
[7] = Starter (d 1-22), 25 mg/kg feed
[8] = Starter (d 1-22), 50 mg/kg feed
[9] = Starter (d 1-22), 100 mg/kg feed
[10] = Starter (d 1-22), 200 mg/kg feed
[11] = Whole period (d 1-36), 25 mg/kg feed
[12] = Whole period (d 1-36), 50 mg/kg feed
[13] = Whole period (d 1-36), 100 mg/kg feed
[14] = Whole period (d 1-36), 200 mg/kg feed
[15] = Finisher (d 36-42), 12.5 mg/kg feed
[16] = Finisher (d 36-42), 25 mg/kg feed
[17] = Grower (d 22-36), 12.5 mg/kg feed
[18] = Starter (d 1-22), 12.5 mg/kg feed
[19] = Whole period (d 1-42), 12.5 mg/kg feed
[20] = Whole period (d 1-42), 25 mg/kg feed

B1: SEQ ID NO: 1: mature amino acid sequence of a wild type GH25 lysozyme from Acremonium alcalophilum with N-terminal SPIRR (protein)
chain: SPIRRRIPGFDISGWQPTTDFARAYANGDRFVYIKATEGTTFKSSAFSRQYTGATQNGFIRGAYHFAQPAASSGAAQARYFASNGGGWSKDGITLPGALDIEYNPNGATCYGLSQSAMVNWIEDFVTTYHGITSRWPVIYTTTDWWTQCTGNSNRFANRCPLWIARYASSVGTLPNGWGFYTFWQYNDKYPQGGDSNWFNGDASRLRALANGD
modifications: Wild type sequence with N-terminal SPIRR
Improvement of FCR compared to the control diet ([1]; 25 mg/kg): 3.3% | Improvement of FCR compared to the control diet ([1]; 50 mg/kg): 2.9% | Improvement of FCR compared to the control diet ([1]; 100 mg/kg): 3.2% | FCR [1, 3]: 1.676^c | FCR, Relative to C (%) [1, 3]: 96.7% | Feed intake [1, 3]: 3004^ab g/b | Feed intake, Relative to C (%) [1, 3]: 98.5% | Weight gain [1, 3]: 1792 g/b | Weight gain, Relative to C (%) [1, 3]: 101.9% | FCR [1, 4]: 1.683^bc | FCR, Relative to C (%) [1, 4]: 97.1% | Feed intake [1, 4]: 2939^ab g/b | Feed intake, Relative to C (%) [1, 4]: 96.4% | Weight gain [1, 4]: 1747 g/b | Weight gain, Relative to C (%) [1, 4]: 99.3% | FCR [1, 5]: 1.662^c | FCR, Relative to C (%) [1, 5]: 95.8% | Feed intake [1, 5]: 2870^b g/b | Feed intake, Relative to C (%) [1, 5]: 94.1% | Weight gain [1, 5]: 1729 g/b | Weight gain, Relative to C (%) [1, 5]: 98.2% | FCR [1, 6]: 1.742^a | FCR, Relative to C (%) [1, 6]: 100.5% | Feed intake [1, 6]: 2934^ab g/b | Feed intake, Relative to C (%) [1, 6]: 96.2% | Weight gain [1, 6]: 1685 g/b | Weight gain, Relative to C (%) [1, 6]: 95.7% | FCR [1, 7]: 1.781^ab | FCR, Relative to C (%) [1, 7]: 98% | Feed intake [1, 7]: 1985 g/b | Feed intake, Relative to C (%) [1, 7]: 99.5% | Weight gain [1, 7]: 1115 g/b | Weight gain, Relative to C (%) [1, 7]: 101.3% | FCR [1, 8]: 1.793^ab | FCR, Relative to C (%) [1, 8]: 98.7% | Feed intake [1, 8]: 1977 g/b | Feed intake, Relative to C (%) [1, 8]: 99.1% | Weight gain [1, 8]: 1102 g/b | Weight gain, Relative to C (%) [1, 8]: 100.1% | FCR [1, 9]: 1.723^bc | FCR, Relative to C (%) [1, 9]: 94.9% | Feed intake [1, 9]: 1941 g/b | Feed intake, Relative to C (%) [1, 9]: 97.3% | Weight gain [1, 9]: 1127 g/b | Weight gain, Relative to C (%) [1, 9]: 102.4% | FCR [1, 10]: 1.696^c | FCR, Relative to C (%) [1, 10]: 93.4% | Feed intake [1, 10]: 1946 g/b | Feed intake, Relative to C (%) [1, 10]: 97.6% | Weight gain [1, 10]: 1148 g/b | Weight gain, Relative to C (%) [1, 10]: 104.2% | FCR [1, 11]: 1.716^bc | FCR, Relative to C (%) [1, 11]: 97.3% | Feed intake [1, 11]: 4991^ab g/b | Feed intake, Relative to C (%) [1, 11]: 98.9% | Weight gain [1, 11]: 2908 g/b | Weight gain, Relative to C (%) [1, 11]: 101.6% | FCR [1, 12]: 1.727^b | FCR, Relative to C (%) [1, 12]: 97.9% | Feed intake [1, 12]: 4920^ab g/b | Feed intake, Relative to C (%) [1, 12]: 97.5% | Weight gain [1, 12]: 2849 g/b | Weight gain, Relative to C (%) [1, 12]: 99.6% | FCR [1, 13]: 1.686^c | FCR, Relative to C (%) [1, 13]: 95.6% | Feed intake [1, 13]: 4815^b g/b | Feed intake, Relative to C (%) [1, 13]: 95.4% | Weight gain [1, 13]: 2856 g/b | Weight gain, Relative to C (%) [1, 13]: 99.8% | FCR [1, 14]: 1.722^b | FCR, Relative to C (%) [1, 14]: 97.6% | Feed intake [1, 14]: 4877^ab g/b | Feed intake, Relative to C (%) [1, 14]: 96.6% | Weight gain [1, 14]: 2832 g/b | Weight gain, Relative to C (%) [1, 14]: 99% | Improvement of weight gain compared to the control diet ([1]; day 1 to day 36, 25 mg/kg): 1.6% | Improvement of FCR compared to the control diet ([1]; starter period, 25 mg/kg): 2.0% | Improvement of weight gain compared to the control diet ([1]; starter period, 25 mg/kg): 1.3% | Improvement of FCR compared to the control diet ([1]; starter period, 100 mg/kg): 5.1% | Improvement of weight gain compared to the control diet ([1]; starter period, 100 mg/kg): 2.4% | Improvement of FCR compared to the control diet ([1]; starter period, 200 mg/kg): 6.6% | Improvement of weight gain compared to the control diet ([1]; starter period, 200 mg/kg): 4.2% | Benefit over the NC diet ([2]; 12.5 mg/kg): did not show any benefit | FCR [2, 15]: 1.953 | FCR, Relative to C (%) [2, 15]: 99.6% | Feed intake [2, 15]: 1544 g/b | Feed intake, Relative to C (%) [2, 15]: 103.8% | Weight gain [2, 15]: 794 g/b | Weight gain, Relative to C (%) [2, 15]: 104.2% | FCR [2, 16]: 1.968 | FCR, Relative to C (%) [2, 16]: 100.4% | Feed intake [2, 16]: 1522 g/b | Feed intake, Relative to C (%) [2, 16]: 102.3% | Weight gain [2, 16]: 775 g/b | Weight gain, Relative to C (%) [2, 16]: 101.8% | FCR [2, 17]: 1.734 | FCR, Relative to C (%) [2, 17]: 100.6% | Feed intake [2, 17]: 2365 g/b | Feed intake, Relative to C (%) [2, 17]: 103.5% | Weight gain [2, 17]: 1365 g/b | Weight gain, Relative to C (%) [2, 17]: 102.8% | FCR [2, 3]: 1.692 | FCR, Relative to C (%) [2, 3]: 98.2% | Feed intake [2, 3]: 2308 g/b | Feed intake, Relative to C (%) [2, 3]: 101.0% | Weight gain [2, 3]: 1364 g/b | Weight gain, Relative to C (%) [2, 3]: 102.7% | FCR [2, 18]: 1.466 | FCR, Relative to C (%) [2, 18]: 101.8% | Feed intake [2, 18]: 1621 g/b | Feed intake, Relative to C (%) [2, 18]: 102.7% | Weight gain [2, 18]: 1106 g/b | Weight gain, Relative to C (%) [2, 18]: 100.9% | FCR [2, 7]: 1.413 | FCR, Relative to C (%) [2, 7]: 98.1% | Feed intake [2, 7]: 1596 g/b | Feed intake, Relative to C (%) [2, 7]: 101.1% | Weight gain [2, 7]: 1129 g/b | Weight gain, Relative to C (%) [2, 7]: 103.0% | EPEF [2, 19]: 398 | EPEF, Relative to C (%) [2, 19]: 95.2% | FCR [2, 19]: 1.695 | FCR, Relative to C (%) [2, 19]: 100.9% | Feed intake [2, 19]: 5529 g/b | Feed intake, Relative to C (%) [2, 19]: 103.3% | Motality [2, 19]: 13.1 | Weight gain [2, 19]: 3264 g/b | Weight gain, Relative to C (%) [2, 19]: 102.5% | EPEF [2, 20]: 428 | EPEF, Relative to C (%) [2, 20]: 102.4% | FCR [2, 20]: 1.660 | FCR, Relative to C (%) [2, 20]: 98.8% | Feed intake [2, 20]: 5426 g/b | Feed intake, Relative to C (%) [2, 20]: 101.4% | Motality [2, 20]: 8.8 | Weight gain [2, 20]: 3269 g/b | Weight gain, Relative to C (%) [2, 20]: 102.6% | EPEF improvement compared to NC diet ([2]; whole period, 25 mg/kg): 1.7% | FCR improvement compared to NC diet ([2]; whole period, 25 mg/kg): 1.4% | Observed shift compared to the control group, Significance (Faecalibacterium; Genus level (Faecalibacterium)): + | Observed shift compared to the control group, Significance (Faecalibacterium; OTU level (Faecalibacterium species)): +++ (Significant change (+++), padj < 0.05) | OTU #27 (Faecalibacterium) Change vs control (Faecalibacterium; OTU level): 3.45 | OTU #27 (Faecalibacterium) Ratio vs control (Faecalibacterium; OTU level): 16.53 | OTU #27 (Faecalibacterium) abundance, Lysozyme treatment (Faecalibacterium; OTU level, ceca content): 3.67 | Faecalibacterium Change vs control (Faecalibacterium; genus level): 5.65 | Faecalibacterium Ratio vs control (Faecalibacterium; genus level): 4.04 | Faecalibacterium abundance, Lysozyme treatment (Faecalibacterium; genus level, ceca content): 7.50

Source: patent US10568344B2, “Methods of improving animal performance” (Novozymes A/S, priority 2015, dated 2020)
